Measurements published in article PMC5973781.

Target: mouse ANKRD16^3xArg (recombinant) (mouse) (UniProt A2AS55)
Experiment: SwitchSENSE

A fold change in affinity against wild type ANKRD16 of 2 fold was found for “mouse AlaRS^A734E (recombinant, SwitchSENSE and biochemical assays) (from UniProt Q8BGQ7 1-968) (enzyme)” in this work.
